# Patent publication US20250147035A1, “METHODS FOR DETECTION OF POST-TRANSLATIONAL MODIFICATIONS” (Quantum-Si Incorporated, priority 2023, published 2025)
# Primed or numbered codes have the meaning given here. Where no end group is shown, it is not given here. [ ]: non-standard residue; d: D form. pS = N[C@@H](COP(=O)(O)O)C(=O)O; Biotin′ = not defined here
# How the values were obtained:
# [1] = test system: phospho-threonine peptides (p[…], QRFpTLAYPDDD, p[…]); assay type: binding
# [2] = test system: phospho-threonine peptides; experiment: Two-stage on-chip recognition run, phospho-threonine peptides; assay type: binding
# Procedure: (§1) The phospho-threonine-specific affinity reagent, PM12, was evaluated for its ability to bind phospho-threonine residues residing in a range of motifs and at different positions in peptides (FIG. 15). To evaluate the PTM-specific affinity reagent, two-stage on-chip recognition runs were performed as described in Example 3. […] Peptide sequencing following PTM detection was not affected for either peptide (FIGS. 16A-16C).
# (§2) This was followed by a second stage in which reagents for peptide sequencing (amino acid recognition molecules, cleaving reagents) were added to the chip to determine sequence information for the single peptide molecules. The plots shown at the top of FIGS. 16B and 16C are stacked plots showing the number of apertures (y-axis) with recognition taking place on the chip over the course of two-stage recognition runs (x-axis) performed in parallel with peptides having unphosphorylated threonine (FIG. 16B) or phosphorylated threonine (FIG. 16C). Each plot shown at the bottom of FIGS. 16B and 16C is an example binding trace from a single aperture on the chip.
# (§3) Using the two-stage recognition run format described above, PTM recognition of phospho-threonine in various peptide motifs was evaluated. Phospho-threonine detection by the PTM-specific affinity reagent in different peptide motifs was evaluated with unphosphorylated threonine ([…], […], […], […], and […]) and compared to their phosphorylated threonine counterparts (QRF-pT-LAYPDDD, RFL-pT-LAYPDDD, FLA-pT-LAYPDDD, LAQ-PT-LAYPDDD, and AQR-pT-LAYPDDD). […] The PTM-specific affinity reagent was also evaluated for its ability to detect phospho-threonine residues at different positions in peptides. […] Similar results were obtained by performing the same two-stage chip run on phospho-threonine peptides spiked in the CDNF libraries (FIGS. 19A-19H).
# [3] = test system: unphosphorylated threonine peptides; experiment: Two-stage on-chip recognition run, unphosphorylated threonine peptides; assay type: binding
# Procedure: as §1, §2, §3
# p[…]-Biotin [4] = experiment: Octet binding assay of PTM-specific affinity reagent candidates, pTQR peptide; conditions: fixed concentration of reagent
# Procedure: (§4) This Example characterizes an exemplary phosphorylated threonine recognizer for use in methods of the disclosure. Octet binding assays at a fixed concentration of PTM-specific affinity reagent candidates were evaluated for binding with phospho-threonine, phospho-serine containing peptides (p[…]-Biotin; p[…]-Biotin; p[…]-Biotin), and control peptides without modifications ([…]-Biotin; […]-Biotin).
# SAKLDEESILKQ-Biotin = experiment: Octet binding assay of PTM-specific affinity reagent candidates, SA control peptide; conditions: SA = […]-Biotin (control); fixed concentration of reagent
# Description: (§5) This Example characterizes an exemplary phosphorylated threonine recognizer for use in methods of the disclosure.
# [5] = test system: pT-ENR and pT-TDY peptides; experiment: Two-stage chip run, phospho-threonine peptides spiked in the CDNF libraries; assay type: binding
# Procedure: as §3
# […]-Biotin = Octet binding assay of PTM-specific affinity reagent candidates, TA control peptide; conditions: fixed concentration of reagent
# Description: as §5
# pSAKLDEESILKQ-Biotin = target: T1, pSAKLDEESILKQ-Biotin; experiment: Octet (BLI), fixed reagent concentration;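 note: octet binding of candidate PTM-specific affinity reagents, each at one fixed concentration, to biotinylated phospho-Thr or phospho-Ser peptides, with unmodified biotinylated peptides serving as controls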
# T1 peptide: [pS]AKLDEESILKQ-{Biotin′}
# Procedure: Octet binding assays at a fixed concentration of PTM-specific affinity reagent candidates were evaluated for binding with phospho-threonine, phospho-serine containing peptides (p[sequence]-Biotin; p[sequence]-Biotin; p[sequence]-Biotin), and control peptides without modifications ([sequence]-Biotin; [sequence]-Biotin).
# …-Biotin = target: T2, …-Biotin; experiment: Octet (BLI), fixed reagent concentration
# T2 sequence (peptide, C-terminal Biotin): TAKLDEESILKQ
# p…-Biotin = target: T3, p…-Biotin; experiment: Octet (BLI), fixed reagent concentration
# T3 sequence (peptide, phosphothreonine at 1; C-terminal Biotin): TAKLDEESILKQ
# phospho-tyrosine (p[…]) = experiment: Polarization binding assays of PM12; conditions: FITC-labeled peptide, PM12 2 μM
# Procedure: (§6) FIGS. 21A-21E provide data from polarization binding assays using a fixed concentration of PM12 with 2 μM and FITC-labeled peptides (p[…], p[…], p[…], QRFp[…], p[…]).
# as §4
# EFLNTRFY = experiment: Octet binding platform, peptide-coated sensors dipped in PM12, control peptide; conditions: unphosphorylated threonine
# Description: (§7) Next, control peptides ([…] and […]) were compared to model peptides (EFLN-pT-RFYK and p[…]) to evaluate phospho-threonine detection in different peptide motifs using a post-translational modification-specific (PTM-specific) affinity reagent that binds to phospho-threonine (PM12). Using the Octet binding platform, Octet sensors were coated with the peptide of interest and dipped in buffer containing the PTM-specific affinity reagent. […] In contrast, no shift was detected with the corresponding control peptides having unphosphorylated threonine (FIGS. 14A-14B).
# […] = as above; conditions: unphosphorylated threonine
# Description: as §7
# [6] = test system: phospho-serine (p[…], p[…]); experiment: Polarization and Octet binding assays of PM12; conditions: PM12 fixed concentration
# Procedure: as §6, §4
# p[…]-Biotin [7] = experiment: Octet binding assay of PTM-specific affinity reagent candidates, pTA peptide; conditions: fixed concentration of reagent
# Description: as §5
# EFLN-pT-RFYK = experiment: Octet binding platform, peptide-coated sensors dipped in PM12; conditions: phospho-threonine in the middle of the peptide
# Description: as §7
# pT-[…] = experiment: as above; conditions: phospho-threonine at the N-terminus
# Description: as §7
molecule,measurement,setting,value
PM12 (Mycobacterium tuberculosis/FhaA) (other) MGSAGTSVTLQLDDGSGRTYQLREGSNIIGRGQDAQFRLPDTGVSRRHLEIRWDGQVALLADLNSTNGTTVNNAPVQEWQLADGDVIRLGHSEIIVRMH,specificity for phospho-threonine,"[1]; FITC-labeled peptides, PM12 2 μM",high specificity for phospho-threonine
same,preference for phospho-threonine location in the peptide,"[1]; internal vs N-terminal phospho-threonines, […]",slight preference for internal phospho-threonines
same,phospho-threonine detection in different peptide motifs,"[2]; QRF-pT-, RFL-pT-, FLA-pT-, LAQ-pT-, AQR-pT-LAYPDDD, first 30 minutes",able to detect phospho-threonine in all five peptide motifs tested
same,pulsing in the first 30 minutes,[2]; model peptide RFL-pT-LAYPDDD,fast pulsing
same,recognition of phospho-threonine at different positions in peptides,[2]; pulsing in the first 30 minutes,"recognized phospho-threonine residues at the N-terminus, the C-terminus, and in the middle of peptides"
same,signal for unphosphorylated threonine residues at corresponding positions,"[3]; N-terminus, C-terminus, middle",no signal was observed
same,signal with unphosphorylated peptide motifs,"[3]; QRFT-, RFLT-, FLAT-, LAQT-, AQRT-LAYPDDD",no signal was detected
same,pulsing in the first 30 minutes,[3]; control peptide […],no pulsing
same,"Octet binding assay response, pTQR",p[…]-Biotin [4],7.1
same,"Octet binding assay response, SA",SAKLDEESILKQ-Biotin,0.6
same,discrimination of phosphorylated and unphosphorylated CDNF peptides,[5]; in the same run,able to discriminate between phosphorylated and unphosphorylated CDNF peptides
same,binding to phospho-threonine CDNF peptides,[5]; peptide traces,binding to pT-ENR and pT-TDY peptides
same,"Octet binding assay response, TA",[…]-Biotin,0.6
same,Octet binding assay response,pSAKLDEESILKQ-Biotin,0.7
same,Octet binding assay response,…-Biotin,0.6
same,Octet binding assay response,p…-Biotin,6.9
same,binding for phospho-tyrosine,phospho-tyrosine (p[…]),low binding
same,Octet shift,EFLNTRFY,no shift
same,Octet shift,[…],no shift
same,binding for phospho-serine,[6],low binding
same,"Octet binding assay response, pTA",p[…]-Biotin [7],6.9
same,Octet shift,EFLN-pT-RFYK,6.8
same,Octet shift,pT-[…],4.4
